Assay results from patent CN1903878A (UNIV FUDAN, dated 2007).

Molecular target: T1, 重组冠状病毒S蛋白 (SARS冠状病毒棘突蛋白部分片段, 氨基酸位点257~573) (SARS冠状病毒, UniProt P59594 257-573)
T1 construct: range 257-573; also called 重组S蛋白; 重组抗原S蛋白
Assay: SPR (Biacore 3000), recombinant S protein immobilised, Fab at 2.5-0.3125 μg/ml

B1: 抗冠状病毒人源性基因工程抗体Fab片段AS3-3 (Fab, V domains shown)
VH: EVKLVESGGGVVQPGRSLRLSCAASGFRFSTYAIHWVRQAPGKGLEWVARISHDGSQTHYADSVQGRFGVSRDNSNYTAYVQLNSLRPDDTAVYFCARAYSSTPDYGMDVWGQGTAVTVSS
VL: EIVMTQSPLSPVTLGQPASISCKSSQSLVDTNGNTYLIWFHQRPGQSPRRLIYQVSKRDSGVPDRFSGSGTDFTLKISRVEAEDVGVYFCMQGTYRPPTLGQGTKVEIKR
notes: also called 阳性克隆AS3-3; 抗SARS病毒人源性抗体IgG Fab片段
Binder B1 has a Ka of 5.05e+07 M⁻¹, a Kd of 19.8 nM and a koff of 0.00306 s⁻¹. The kon was 154000 M⁻¹ s⁻¹.
